*1 amine or outer side, *2 acyl side, *3 side chain or, on linkers, in order; H or OH if unused. Side-chain parts run from the residue outwards. The star is where a group is joined. C18 diacid = O=C(O)CCCCCCCCCCCCCCCCC(=O)*; γGlu = O=C(O)[C@H](CCC(=O)[*:2])N[*:1]; Isovaleryl = CC(C)CC(=O)*; AEEA = NCCOCCOCC(=O)O
T1: human neuropeptide Y2 receptor (human, UniProt P49146 1-381)
T1 construct: whole, on cells; also called hNPY2 receptor; hNPY2-R
T1 sequence (looked up): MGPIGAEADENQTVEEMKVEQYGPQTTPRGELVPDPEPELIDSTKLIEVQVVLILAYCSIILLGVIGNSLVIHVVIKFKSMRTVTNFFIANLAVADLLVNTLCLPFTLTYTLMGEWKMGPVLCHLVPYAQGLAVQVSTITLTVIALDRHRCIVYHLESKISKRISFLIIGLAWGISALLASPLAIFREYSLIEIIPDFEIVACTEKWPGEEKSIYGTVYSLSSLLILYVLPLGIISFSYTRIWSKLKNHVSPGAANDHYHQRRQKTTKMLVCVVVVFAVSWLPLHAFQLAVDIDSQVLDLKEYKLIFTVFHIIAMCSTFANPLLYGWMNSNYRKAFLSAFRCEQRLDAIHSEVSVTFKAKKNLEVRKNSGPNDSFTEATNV


Molecular target: T1, human neuropeptide Y2 receptor
Assay: radioligand competition (125I-PYY(1-36)), hNPY2R membranes
Method in brief: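 Commercial human Y2 receptor membranes (0.5 μg protein/well) were incubated with peptide for 2 h at room temperature in 50 mM HEPES, 5 mM MgCl₂, 1 mM CaCl₂, pH 7.4, with 0.2% ovalbumin. Bound radioligand was separated on PEI-soaked GF/C filters and counted by scintillation, and IC₅₀ came from nonlinear sigmoidal regression.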

| Binder | Ki [nM] |
| --- | --- |
| Isovaleryl-APEK([AEEA-AEEA-γGlu-C18 diacid])PEEEASPEELEQYYVSLRHYYNWLTRQRY-NH2 (SMILES CC(C)CC(=O)N[C@@H](C)C(=O)N1CCC[C@H]1C(=O)N[C@@H](CCC(=O)O)C(=O)N[C@@H](CCCCNC(=O)COCCOCCNC(=O)COCCOCCNC(=O)CC[C@H](NC(=O)CCCCCCCCCCCCCCCCC(=O)O)C(=O)O)C(=O)N1CCC[C@H]1C(=O)N[C@@H](CCC(=O)O)C(=O)N[C@@H](CCC(=O)O)C(=O)N[C@@H](CCC(=O)O)C(=O)N[C@@H](C)C(=O)N[C@@H](CO)C(=O)N1CCC[C@H]1C(=O)N[C@@H](CCC(=O)O)C(=O)N[C@@H](CCC(=O)O)C(=O)N[C@@H](CC(C)C)C(=O)N[C@@H](CCC(=O)O)C(=O)N[C@@H](CCC(N)=O)C(=O)N[C@@H](Cc1ccc(O)cc1)C(=O)N[C@@H](Cc1ccc(O)cc1)C(=O)N[C@H](C(=O)N[C@@H](CO)C(=O)N[C@@H](CC(C)C)C(=O)N[C@@H](CCCNC(=N)N)C(=O)N[C@@H](Cc1c[nH]cn1)C(=O)N[C@@H](Cc1ccc(O)cc1)C(=O)N[C@@H](Cc1ccc(O)cc1)C(=O)N[C@@H](CC(N)=O)C(=O)N[C@@H](Cc1c[nH]c2ccccc12)C(=O)N[C@@H](CC(C)C)C(=O)N[C@H](C(=O)N[C@@H](CCCNC(=N)N)C(=O)N[C@@H](CCC(N)=O)C(=O)N[C@@H](CCCNC(=N)N)C(=O)N[C@@H](Cc1ccc(O)cc1)C(N)=O)[C@@H](C)O)C(C)C) [Compound 170] | 12.3 |
| Isovaleryl-APAK([AEEA-AEEA-γGlu-C18 diacid])PEEDASPEELQRYYVELRHYYNWLTRQRY-NH2 (SMILES CC(C)CC(=O)N[C@@H](C)C(=O)N1CCC[C@H]1C(=O)N[C@@H](C)C(=O)N[C@@H](CCCCNC(=O)COCCOCCNC(=O)COCCOCCNC(=O)CC[C@H](NC(=O)CCCCCCCCCCCCCCCCC(=O)O)C(=O)O)C(=O)N1CCC[C@H]1C(=O)N[C@@H](CCC(=O)O)C(=O)N[C@@H](CCC(=O)O)C(=O)N[C@@H](CC(=O)O)C(=O)N[C@@H](C)C(=O)N[C@@H](CO)C(=O)N1CCC[C@H]1C(=O)N[C@@H](CCC(=O)O)C(=O)N[C@@H](CCC(=O)O)C(=O)N[C@@H](CC(C)C)C(=O)N[C@@H](CCC(N)=O)C(=O)N[C@@H](CCCNC(=N)N)C(=O)N[C@@H](Cc1ccc(O)cc1)C(=O)N[C@@H](Cc1ccc(O)cc1)C(=O)N[C@H](C(=O)N[C@@H](CCC(=O)O)C(=O)N[C@@H](CC(C)C)C(=O)N[C@@H](CCCNC(=N)N)C(=O)N[C@@H](Cc1c[nH]cn1)C(=O)N[C@@H](Cc1ccc(O)cc1)C(=O)N[C@@H](Cc1ccc(O)cc1)C(=O)N[C@@H](CC(N)=O)C(=O)N[C@@H](Cc1c[nH]c2ccccc12)C(=O)N[C@@H](CC(C)C)C(=O)N[C@H](C(=O)N[C@@H](CCCNC(=N)N)C(=O)N[C@@H](CCC(N)=O)C(=O)N[C@@H](CCCNC(=N)N)C(=O)N[C@@H](Cc1ccc(O)cc1)C(N)=O)[C@@H](C)O)C(C)C) [Compound 173] | 1.71 |
| Isovaleryl-APAK([AEEA-AEEA-γGlu-C18 diacid])PEEDAEPEELQRYYVSLRHYYNWLTRQRY-NH2 (SMILES CC(C)CC(=O)N[C@@H](C)C(=O)N1CCC[C@H]1C(=O)N[C@@H](C)C(=O)N[C@@H](CCCCNC(=O)COCCOCCNC(=O)COCCOCCNC(=O)CC[C@H](NC(=O)CCCCCCCCCCCCCCCCC(=O)O)C(=O)O)C(=O)N1CCC[C@H]1C(=O)N[C@@H](CCC(=O)O)C(=O)N[C@@H](CCC(=O)O)C(=O)N[C@@H](CC(=O)O)C(=O)N[C@@H](C)C(=O)N[C@@H](CCC(=O)O)C(=O)N1CCC[C@H]1C(=O)N[C@@H](CCC(=O)O)C(=O)N[C@@H](CCC(=O)O)C(=O)N[C@@H](CC(C)C)C(=O)N[C@@H](CCC(N)=O)C(=O)N[C@@H](CCCNC(=N)N)C(=O)N[C@@H](Cc1ccc(O)cc1)C(=O)N[C@@H](Cc1ccc(O)cc1)C(=O)N[C@H](C(=O)N[C@@H](CO)C(=O)N[C@@H](CC(C)C)C(=O)N[C@@H](CCCNC(=N)N)C(=O)N[C@@H](Cc1c[nH]cn1)C(=O)N[C@@H](Cc1ccc(O)cc1)C(=O)N[C@@H](Cc1ccc(O)cc1)C(=O)N[C@@H](CC(N)=O)C(=O)N[C@@H](Cc1c[nH]c2ccccc12)C(=O)N[C@@H](CC(C)C)C(=O)N[C@H](C(=O)N[C@@H](CCCNC(=N)N)C(=O)N[C@@H](CCC(N)=O)C(=O)N[C@@H](CCCNC(=N)N)C(=O)N[C@@H](Cc1ccc(O)cc1)C(N)=O)[C@@H](C)O)C(C)C) [Compound 174] | 3.89 |
| Isovaleryl-APEK([AEEA-AEEA-γGlu-C18 diacid])PEEDSSPEELQRYYVELRHYYNWLTRQRY-NH2 (SMILES CC(C)CC(=O)N[C@@H](C)C(=O)N1CCC[C@H]1C(=O)N[C@@H](CCC(=O)O)C(=O)N[C@@H](CCCCNC(=O)COCCOCCNC(=O)COCCOCCNC(=O)CC[C@H](NC(=O)CCCCCCCCCCCCCCCCC(=O)O)C(=O)O)C(=O)N1CCC[C@H]1C(=O)N[C@@H](CCC(=O)O)C(=O)N[C@@H](CCC(=O)O)C(=O)N[C@@H](CC(=O)O)C(=O)N[C@@H](CO)C(=O)N[C@@H](CO)C(=O)N1CCC[C@H]1C(=O)N[C@@H](CCC(=O)O)C(=O)N[C@@H](CCC(=O)O)C(=O)N[C@@H](CC(C)C)C(=O)N[C@@H](CCC(N)=O)C(=O)N[C@@H](CCCNC(=N)N)C(=O)N[C@@H](Cc1ccc(O)cc1)C(=O)N[C@@H](Cc1ccc(O)cc1)C(=O)N[C@H](C(=O)N[C@@H](CCC(=O)O)C(=O)N[C@@H](CC(C)C)C(=O)N[C@@H](CCCNC(=N)N)C(=O)N[C@@H](Cc1c[nH]cn1)C(=O)N[C@@H](Cc1ccc(O)cc1)C(=O)N[C@@H](Cc1ccc(O)cc1)C(=O)N[C@@H](CC(N)=O)C(=O)N[C@@H](Cc1c[nH]c2ccccc12)C(=O)N[C@@H](CC(C)C)C(=O)N[C@H](C(=O)N[C@@H](CCCNC(=N)N)C(=O)N[C@@H](CCC(N)=O)C(=O)N[C@@H](CCCNC(=N)N)C(=O)N[C@@H](Cc1ccc(O)cc1)C(N)=O)[C@@H](C)O)C(C)C) [Compound 177] | 2.55 |

Further binders by falling Ki, results first:

| Ki [nM] | Binder |
| --- | --- |
| 3.05 | Isovaleryl-APEK([AEEA-AEEA-γGlu-C18 diacid])PEEDASEEELQRYYVSLRHYYNWLTRQRY-NH2 (SMILES CC(C)CC(=O)N[C@@H](C)C(=O)N1CCC[C@H]1C(=O)N[C@@H](CCC(=O)O)C(=O)N[C@@H](CCCCNC(=O)COCCOCCNC(=O)COCCOCCNC(=O)CC[C@H](NC(=O)CCCCCCCCCCCCCCCCC(=O)O)C(=O)O)C(=O)N1CCC[C@H]1C(=O)N[C@@H](CCC(=O)O)C(=O)N[C@@H](CCC(=O)O)C(=O)N[C@@H](CC(=O)O)C(=O)N[C@@H](C)C(=O)N[C@@H](CO)C(=O)N[C@@H](CCC(=O)O)C(=O)N[C@@H](CCC(=O)O)C(=O)N[C@@H](CCC(=O)O)C(=O)N[C@@H](CC(C)C)C(=O)N[C@@H](CCC(N)=O)C(=O)N[C@@H](CCCNC(=N)N)C(=O)N[C@@H](Cc1ccc(O)cc1)C(=O)N[C@@H](Cc1ccc(O)cc1)C(=O)N[C@H](C(=O)N[C@@H](CO)C(=O)N[C@@H](CC(C)C)C(=O)N[C@@H](CCCNC(=N)N)C(=O)N[C@@H](Cc1c[nH]cn1)C(=O)N[C@@H](Cc1ccc(O)cc1)C(=O)N[C@@H](Cc1ccc(O)cc1)C(=O)N[C@@H](CC(N)=O)C(=O)N[C@@H](Cc1c[nH]c2ccccc12)C(=O)N[C@@H](CC(C)C)C(=O)N[C@H](C(=O)N[C@@H](CCCNC(=N)N)C(=O)N[C@@H](CCC(N)=O)C(=O)N[C@@H](CCCNC(=N)N)C(=O)N[C@@H](Cc1ccc(O)cc1)C(N)=O)[C@@H](C)O)C(C)C) [Compound 176] |
| 2.05 | Isovaleryl-APEK([AEEA-AEEA-γGlu-C18 diacid])PEEDATPEETERYYVSLRHYYNWLTRQRY-NH2 (SMILES CC(C)CC(=O)N[C@@H](C)C(=O)N1CCC[C@H]1C(=O)N[C@@H](CCC(=O)O)C(=O)N[C@@H](CCCCNC(=O)COCCOCCNC(=O)COCCOCCNC(=O)CC[C@H](NC(=O)CCCCCCCCCCCCCCCCC(=O)O)C(=O)O)C(=O)N1CCC[C@H]1C(=O)N[C@@H](CCC(=O)O)C(=O)N[C@@H](CCC(=O)O)C(=O)N[C@@H](CC(=O)O)C(=O)N[C@@H](C)C(=O)N[C@H](C(=O)N1CCC[C@H]1C(=O)N[C@@H](CCC(=O)O)C(=O)N[C@@H](CCC(=O)O)C(=O)N[C@H](C(=O)N[C@@H](CCC(=O)O)C(=O)N[C@@H](CCCNC(=N)N)C(=O)N[C@@H](Cc1ccc(O)cc1)C(=O)N[C@@H](Cc1ccc(O)cc1)C(=O)N[C@H](C(=O)N[C@@H](CO)C(=O)N[C@@H](CC(C)C)C(=O)N[C@@H](CCCNC(=N)N)C(=O)N[C@@H](Cc1c[nH]cn1)C(=O)N[C@@H](Cc1ccc(O)cc1)C(=O)N[C@@H](Cc1ccc(O)cc1)C(=O)N[C@@H](CC(N)=O)C(=O)N[C@@H](Cc1c[nH]c2ccccc12)C(=O)N[C@@H](CC(C)C)C(=O)N[C@H](C(=O)N[C@@H](CCCNC(=N)N)C(=O)N[C@@H](CCC(N)=O)C(=O)N[C@@H](CCCNC(=N)N)C(=O)N[C@@H](Cc1ccc(O)cc1)C(N)=O)[C@@H](C)O)C(C)C)[C@@H](C)O)[C@@H](C)O) [Compound 178] |

From patent US20210139548A1 (published 2021)
